Results taken from patent US11433139B2, “Peptide vaccines against interleukin-31” (Zoetis Services LLC, priority 2018, dated 2022).
Where no end group is shown, it is not given here.

Key:
[1] = test system: full length feline IL-31; assay: Cat serology study, serum titers by indirect ELISA to feline IL-31; type: in vivo; conditions: laboratory cats, 10 μg/dose s.c. days 0, 28, 56, Bay R1005 and CpG adjuvant mixture
Procedure: 2.9. Serum titers to IL-31 following immunization of laboratory cats with IL-31 feline and equine mimotopes and full length feline IL-31 protein A serology study was performed using laboratory cats like the study design described herein in section 2.3 however in this study feline and equine mimotopes were compared. Laboratory cats were subcutaneously administered the conjugated IL-31 mimotopes adjuvanted with a mixture including the glycolipid adjuvant Bay R1005 (N-(2-Deoxy-2-L-leucylamino-β-D-glucopyranosyl)-N-octadecyldodecanoylamidehydroacetate) as well as CpG oligonucleotides. A control group was included containing CRM-197 conjugated feline IL-31 (SEQ ID NO: 157; Feline_IL31_wildtype), the corresponding nucleotide sequence for which is (SEQ ID NO: 158; Feline_IL-31_wildtype) in an adjuvant mixture including the glycolipid adjuvant Bay R1005 (N-(2-Deoxy-2-L-leucylamino-β-D-glucopyranosyl)-N-octadecyldodecanoylamidehydroacetate) as well as CpG oligonucleotides. (T01). 10 μg/dose of each adjuvanted mimotope or control was administered subcutaneously on days 0, 28, and 56 (0.5 ml of a 20 μg/ml solution). Blood for serum was taken on day −14, 0 (pre-dose), 28 (pre-dose), 42, 56 (pre-dose), 70, and 84. In addition, on days 35 and 63, approximately 40 mls of blood was collected from each animal into lithium heparin tubes and processed for PBMC isolation using a standard method. […]

[2] = test system: mAb ZTS-361; assay: Peptide block of mAb ZTS-361 inhibition of IL-31 mediated STAT3 phosphorylation in feline FCWF-4 macrophages; type: cell-based
Sequence of mAb ZTS-361 (as listed by the source): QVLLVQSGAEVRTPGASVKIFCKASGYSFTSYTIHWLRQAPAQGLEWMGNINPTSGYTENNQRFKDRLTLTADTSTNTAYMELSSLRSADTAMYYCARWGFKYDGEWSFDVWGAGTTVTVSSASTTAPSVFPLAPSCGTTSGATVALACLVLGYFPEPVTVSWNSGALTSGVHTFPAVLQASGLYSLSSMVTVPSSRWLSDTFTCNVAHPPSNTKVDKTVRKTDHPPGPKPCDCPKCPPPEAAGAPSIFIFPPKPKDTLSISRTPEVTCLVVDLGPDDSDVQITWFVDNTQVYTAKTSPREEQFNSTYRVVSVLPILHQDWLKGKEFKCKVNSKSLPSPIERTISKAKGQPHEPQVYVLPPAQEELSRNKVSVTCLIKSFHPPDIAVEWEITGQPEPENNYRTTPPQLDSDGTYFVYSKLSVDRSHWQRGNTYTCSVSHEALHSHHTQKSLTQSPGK
Sequence of mAb ZTS-361 (as listed by the source): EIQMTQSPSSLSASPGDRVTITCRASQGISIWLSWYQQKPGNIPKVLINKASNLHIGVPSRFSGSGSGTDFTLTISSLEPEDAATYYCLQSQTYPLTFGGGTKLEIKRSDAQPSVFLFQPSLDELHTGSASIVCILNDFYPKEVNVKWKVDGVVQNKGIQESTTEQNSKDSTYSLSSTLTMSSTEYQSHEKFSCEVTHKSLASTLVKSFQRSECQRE

[3] = Pharmacokinetic profile of canine IL-31 in dogs; type: in vivo, dog; conditions: subcutaneous dose of 1.75 μg/kg, within the first hour
Procedure: A recent study was performed to determine serum IL-31 levels in cats with a presumptive diagnosis of allergic dermatitis (AD) from several different geographic regions in the USA. […] To understand the levels of canine IL-31 in a previous model development study, the pharmacokinetic profile of canine IL-31 was analyzed in dogs following administration of a subcutaneous dose of 1.75 μg/kg. […] Based on these findings it is reasonable to believe that an intravenous dose of 0.5 μg/kg feline IL-31 used in this feline model will result in a circulating amount that is far excessive to that observed in the naturally occurring disease state for dogs and cats.

[4] = Stability of cIL-31 following dialysis into PBS; type: physicochemical
Description: The Interleukin 31 protein varies in amino acid sequence conservation among homologous species (FIGS. 1A and 1B) but is believed to have common structural architecture with other members of the type I cytokine family (Boulay et al. 2003, Immunity. August; 19(2):159-632003; Dillon et al. 2004 Nat Immunol. July; 5(7):752-60). This up-down bundle topology is significant to the mode of receptor recognition shared by these cytokines (Dillon et al. supra, Cornelissen et al. 2012 Eur J Cell Biol. June-July; 91(6-7):552-66). With variation in IL-31 protein sequence identities between different species, it is not possible to predict if antibodies raised against one species will cross-react with others given different epitope propensities and local amino acid compositions. As a consequence, multiple forms of IL-31 protein were considered for this work representing multiple species and expression systems. The canine IL-31 protein (cIL-31) was produced to use as an immunogen and a reagent to test affinity and potency of antibody hits. […] Protein concentration was determined using a bicinchoninic assay (BCA assay) with Bovine Serum Albumin (BSA) as a standard (ThermoFisher Scientific, Inc., Rockford, Ill.). […]

[5] = test system: full length feline IL-31 protein; assay: Dog immunogenicity study, serum titers by indirect ELISA to feline IL-31; type: in vivo, canine; conditions: beagle dogs, 10 μg/dose s.c. days 0, 28, 56, ZA-01 adjuvant; maximum dilution 1:50,000
Description: (§1) An immunogenicity study was undertaken to assess the ability of CRM-197-conjugated IL-31 15H05 mimotopes to generate an epitope-specific immune response driven towards the relevant region on the IL-31 protein where antibody 15H05 binds and neutralizes the cytokines ability to activate the IL-31Ra:OSMR co-receptor. The study design is depicted in FIG. 14. Purebred male beagle dogs were subcutaneously administered the conjugated IL-31_15H05 mimotopes adjuvanted with ZA-01. […] Control groups were included containing ZA-01 adjuvant CRM-197 alone (T01) and CRM-197 conjugated feline IL-31 (SEQ ID NO: 159; Feline_IL-31_E_coli), the corresponding nucleotide sequence for which is (SEQ ID NO: 160; Feline_IL-31_E_coli) in ZA-01 (T02). 10 μg/dose of each adjuvanted mimotope or control was administered subcutaneously on days 0, 28, and 56 (0.5 ml of a 20 μg/ml solution). Blood for serum was taken on day 0 (pre-dose), 7, 12, 28 (pre-dose) 35, 42, 49, 56 (pre-dose), 63, 70, 77, and 84. In addition, on days 35 and 84, approximately 40 mls of blood was collected from each animal into lithium heparin tubes and processed for PBMC isolation using a standard method. […]
(§2) Serum titers from each study day indicated in section 2.3 above were assessed for each animal. Titers were determined using an indirect ELISA where a full length IL-31 protein was used as the capture material for each respective assay. […]

[6] = test system: full length human IL-31; assay: Dog immunogenicity study, serum titers by indirect ELISA to human IL-31; type: in vivo, canine; conditions: beagle dogs, 10 μg/dose s.c. days 0, 28, 56, ZA-01 adjuvant
Description: as §1, §2

[7] = test system: full length canine IL-31; assay: Dog immunogenicity study, serum titers by indirect ELISA to canine IL-31; type: in vivo; conditions: beagle dogs, 10 μg/dose s.c. days 0, 28, 56, ZA-01 adjuvant; maximum dilution 1:50,000
Description: as §1, §2

[8] = test system: full length equine IL-31; assay: Dog immunogenicity study, serum titers by indirect ELISA to equine IL-31; type: in vivo; conditions: beagle dogs, 10 μg/dose s.c. days 0, 28, 56, ZA-01 adjuvant
Sequence of full length equine IL-31 (as listed by the source): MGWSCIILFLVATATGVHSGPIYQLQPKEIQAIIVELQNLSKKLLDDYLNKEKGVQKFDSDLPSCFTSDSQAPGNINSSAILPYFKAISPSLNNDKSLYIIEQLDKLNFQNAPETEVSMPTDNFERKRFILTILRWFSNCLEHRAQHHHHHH
Description: as §1, §2

Molecule: constrained feline IL-31 15H05 mimotope, N-AKVSMPADNFERKNFILT-C plus N and C terminal Cysteines, mT2a (CAKVSMPADNFERKNFILTC; also: constrained via terminal cysteines, mode not given here) [ZTS-563]
- feline antibody titers to full length feline IL-31 [1]: modest response
- IC50, conjugated peptide ([2]; CRM197 conjugated, co-incubated 1 hour with 0.2 μM mAb ZTS-361, FCWF-4 cells): 3.384 µg/mL
- decline of potency following conjugation ([2]; conjugated vs unconjugated): approximately 3 fold

B1: canine IL-31: recombinant canine IL-31 protein (SEQ ID NO: 155) produced in CHO cells (protein, listed as Canis familiaris)
chain: MLSHTGPSRFALFLLCSMETLLSSHMAPTHQLPPSDVRKIILELQPLSRGLLEDYQKKETGVPESNRTLLLCLTSDSQPPRLNSSAILPYFRAIRPLSDKNIIDKIIEQLDKLKFQHEPETEISVPADTFECKSFILTILQQFSACLESVFKSLNSGPQ
- peak plasma levels, maximum [3]: about 30 ng/ml
- stability, proteolysis ([4]; PBS, several days at 4° C.): no proteolysis was observed
- stability, precipitation ([4]; following dialysis into PBS): No precipitation was observed

B2: feline IL-31 CRM: CRM-197 conjugated feline IL-31 (SEQ ID NO: 159; Feline_IL-31_E_coli), control group T02 (conjugate)
chain: MRGSHHHHHHGSSHMAPAHRLQPSDIRKIILELRPMSKGLLQDYLKKEIGLPESNHSSLPCLSSDSQLPHINGSAILPYFRAIRPLSDKNTIDKIIEQLDKLKFQREPEAKVSMPADNFERKNFILAVLQQFSACLEHVLQSLNSGPQ
modifications: conjugated to CRM-197 carrier; Amino acid sequence representing feline IL-31 protein with N-terminal His tag
- canine antibody titers to full length feline IL-31 [5]: moderate and sustained antibody response
- canine antibody titers (CRAR) to full length human IL-31 [6]: minor
- canine antibody titers to full length canine IL-31 [7]: transient CRAR
- canine antibody titers (CRAR) to full length equine IL-31 [8]: negligible
